In paper PMC11417369, “DNA sequence and chromatin differentiate sequence-specific transcription factor binding in the human malaria parasite Plasmodium falciparum”:

T1: HDP1 homeodomain-like (Plasmodium falciparum, UniProt Q8IKH4 2990-3078)
T1 sequence: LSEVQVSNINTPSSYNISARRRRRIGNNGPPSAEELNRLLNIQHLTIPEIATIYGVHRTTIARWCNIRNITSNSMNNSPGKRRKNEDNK

T2: SIP2 D1 (Plasmodium falciparum, UniProt C6KSN9 177-235)
T2 sequence: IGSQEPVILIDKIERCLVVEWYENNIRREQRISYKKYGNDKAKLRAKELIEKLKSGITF

B1: GTGCAC_negctrl_site493 (dsDNA)
DNA 1: TTCTCAAATATAATAAAATTATAAAGTGACCTAACT
DNA 2: AGTTAGGTCACTTTATAATTTTATTATATTTGAGAA
B2: GTGCAC_negctrl_site724 (dsDNA)
DNA 1: TCCTCAAAAAAATAAAATAATTTATACTTTTTTAAA
DNA 2: TTTAAAAAAGTATAAATTATTTTATTTTTTTGAGGA
B3: GTGCAC_site9736 (dsDNA)
DNA 1: ATATTTTATGTGTTGGTGCACATCTTTATTTAAACT
DNA 2: AGTTTAAATAAAGATGTGCACCAACACATAAAATAT
B4: GTGCAC_site10490 (dsDNA)
DNA 1: TTTATATTTATTGTTGTGCACAGAACCATATTCGTT
DNA 2: AACGAATATGGTTCTGTGCACAACAATAAATATAAA
B5: GTGCAC_negctrl_site167 (dsDNA)
DNA 1: TTGTATTTACACGATCAACCAAATGGTATATAAATA
DNA 2: TATTTATATACCATTTGGTTGATCGTGTAAATACAA
B6: GTGCAC_negctrl_site104 (dsDNA)
DNA 1: TTTTTTTTTTCTTTTTTTTATTATATTAACGGAATT
DNA 2: AATTCCGTTAATATAATAAAAAAAAGAAAAAAAAAA
B7: GTGCAC_negctrl_site440 (dsDNA)
DNA 1: TTTTTTATTCCATAATATAATATGTTTTGAAATTTG
DNA 2: CAAATTTCAAAACATATTATATTATGGAATAAAAAA
B8: GTGCAC_negctrl_site350 (dsDNA)
DNA 1: TTCACTTTTTTTTTTTTTTTTTTTTTTTTTTTTATT
DNA 2: AATAAAAAAAAAAAAAAAAAAAAAAAAAAAAGTGAA
B9: GTGCAC_site10202 (dsDNA)
DNA 1: AAAATGTAGAAATGGGTGCACACACATATATAATAT
DNA 2: ATATTATATATGTGTGTGCACCCATTTCTACATTTT
B10: GTGCAC_site10094 (dsDNA)
DNA 1: TATTAACAAATTTATGTGCACTGAGGACAAATATAT
DNA 2: ATATATTTGTCCTCAGTGCACATAAATTTGTTAATA
B11: GTGCAC_negctrl_site308 (dsDNA)
DNA 1: TAATAATAGTACTGACATCAAAATCTTATTAAAAAT
DNA 2: ATTTTTAATAAGATTTTGATGTCAGTACTATTATTA
B12: GTGCAC_site10218 (dsDNA)
DNA 1: GATATATATACATGTGTGCACCATGCAACTTGTTTT
DNA 2: AAAACAAGTTGCATGGTGCACACATGTATATATATC
B13: GTGCAC_negctrl_site376 (dsDNA)
DNA 1: AACAGAATAATACTAAATGAACGATTTCTCTTTATG
DNA 2: CATAAAGAGAAATCGTTCATTTAGTATTATTCTGTT
B14: GTGCAC_negctrl_site82 (dsDNA)
DNA 1: CTGATATATTATTTATCTGAATATATTAATATGTAT
DNA 2: ATACATATTAATATATTCAGATAAATAATATATCAG
B15: GTGCAC_negctrl_site199 (dsDNA)
DNA 1: AAAATTATATTTTATAGAAATTTAAATAAATATATA
DNA 2: TATATATTTATTTAAATTTCTATAAAATATAATTTT
B16: GTGCAC_site9533 (dsDNA)
DNA 1: TTTTCTATTTAATTGGTGCACTGATATATACACATA
DNA 2: TATGTGTATATATCAGTGCACCAATTAAATAGAAAA
B17: GTGCAC_negctrl_site132 (dsDNA)
DNA 1: AAAGTAACACACTAATATTTTAACAAATAATATATA
DNA 2: TATATATTATTTGTTAAAATATTAGTGTGTTACTTT
B18: GTGCAC_site9436 (dsDNA)
DNA 1: AACGAGCAAGACGGGGTGCACACAAACTAATATGCC
DNA 2: GGCATATTAGTTTGTGTGCACCCCGTCTTGCTCGTT
B19: GTGCAC_negctrl_site631 (dsDNA)
DNA 1: AGAAGGTAAATAATTTACCCATATATATAAATATAT
DNA 2: ATATATTTATATATATGGGTAAATTATTTACCTTCT

biological target: T1, HDP1 homeodomain-like; assay: gcPBM; about 25 ug protein; PBS, 1% milk, 0.2 mg/ml BSA, salmon testes DNA, 0.03% Triton X-100; settings: tags: N-terminal GST (pGEX-4T-1), kept; chain copies: 2; label: surface-attached array probe

In order of rising binding signal:
1. B13  5.96 ln median PBM intensity, better of two orientations
2. B11  5.97 ln median PBM intensity, better of two orientations
3. B8  6 ln median PBM intensity, better of two orientations
4. B15  6 ln median PBM intensity, better of two orientations
5. B2  6.01 ln median PBM intensity, better of two orientations
6. B14  6.08 ln median PBM intensity, better of two orientations
7. B1  6.1 ln median PBM intensity, better of two orientations
8. B17  6.15 ln median PBM intensity, better of two orientations
9. B7  6.16 ln median PBM intensity, better of two orientations
10. B6  6.2 ln median PBM intensity, better of two orientations
11. B19  6.21 ln median PBM intensity, better of two orientations
12. B5  6.23 ln median PBM intensity, better of two orientations
13. B12  9.57 ln median PBM intensity, better of two orientations
14. B9  9.58 ln median PBM intensity, better of two orientations
15. B3  9.88 ln median PBM intensity, better of two orientations
16. B18  9.89 ln median PBM intensity, better of two orientations
17. B10  10.3 ln median PBM intensity, better of two orientations
18. B16  10.5 ln median PBM intensity, better of two orientations
19. B4  11.1 ln median PBM intensity, better of two orientations

biological target: T2, SIP2 D1; assay: as above; settings: tags: N-terminal GST (pGEX-4T-1), kept; label: surface-attached array probe

In order of rising binding signal:
1. B17  6.76 ln median PBM intensity, better of two orientations
2. B13  6.78 ln median PBM intensity, better of two orientations
3. B14  6.78 ln median PBM intensity, better of two orientations
4. B2  6.79 ln median PBM intensity, better of two orientations
5. B15  6.79 ln median PBM intensity, better of two orientations
6. B7  6.8 ln median PBM intensity, better of two orientations
7. B11  6.81 ln median PBM intensity, better of two orientations
8. B8  6.86 ln median PBM intensity, better of two orientations
9. B5  6.87 ln median PBM intensity, better of two orientations
10. B1  6.88 ln median PBM intensity, better of two orientations
11. B6  6.89 ln median PBM intensity, better of two orientations
12. B19  6.91 ln median PBM intensity, better of two orientations
13. B4  10.4 ln median PBM intensity, better of two orientations
14. B10  10.5 ln median PBM intensity, better of two orientations
15. B3  10.9 ln median PBM intensity, better of two orientations
16. B12  11.1 ln median PBM intensity, better of two orientations
17. B16  11.6 ln median PBM intensity, better of two orientations
18. B9  11.7 ln median PBM intensity, better of two orientations
19. B18  11.8 ln median PBM intensity, better of two orientations
